Common to all, as to assay: SEC-MALS
(In general: SEC sorts molecules by how far they enter the pores of the column.)

Data set [1] deals with 6×His-SYP-3 (C. elegans) (UniProt O62238).
Data set [2] deals with T1, 6×His-SYP-3 (C. elegans, UniProt O62238 1-224).
T1 sequence: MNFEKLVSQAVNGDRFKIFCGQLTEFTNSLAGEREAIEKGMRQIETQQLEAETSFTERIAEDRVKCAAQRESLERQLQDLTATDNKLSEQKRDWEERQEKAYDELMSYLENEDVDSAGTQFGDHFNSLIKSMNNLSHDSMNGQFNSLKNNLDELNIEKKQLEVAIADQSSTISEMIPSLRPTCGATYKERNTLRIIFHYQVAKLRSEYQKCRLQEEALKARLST

Data set [3] deals with the molecule itself.

“SYP-5 (recombinant, untagged) (natural protein)” came in with a stoichiometry N (copies of each protein in the complex) in data set [1] of 4.
On the same count and under the same terms, for “SYP-1 (recombinant, untagged) (natural protein)” the value was 4.

B1: SYP-4 (recombinant, untagged) (natural protein)
chain: MSFPTLQVRPNEKNPKVLRCHEFLRQSNQLVERNMINTEGRKMLAKLLTKMVSEAKGIYALDERRAELAKSGKLQEKLKSAYQTSLTVMEDRLHIAELSRQVQEKKLTVQQKYYECDDLRKSVQETNTEARRVQEINEQRLVDTTRATEELIVKSASILKNLENSSDVHKLRAMEEEKRILEEVVEGLRDQKKCLADDIRTKKATLKAESKKSFEKTVIECAKHYKLHQSLMPKLDKSKRSLETLKDEEENRRICGSLSLDETMQFDRSFILASMDKTNKPEKAVQQLTSKSSEVSITPQISETAKSSFSKEPIPTQHPMEVGEEPVIEHSAEESVHIEPPNVTEIREVVPQITIQPTRQDSVVQRDAEELDTSAVPSPQPESILDEPEEEEEELSNHENHADQSMDVMEVDQEVPEESPMEVGEQEEIEQPSVFKDILATEQAALSQEQEPEIVEKQADNDVQFVDDQQVGAQLDVEDEEEVMSENGSNKSNNFSFNFFGNSKGTSAGEGGGEGNFDFNFDGIGAGDDGSNNGGSTGDLDFLNYDGEDEGKGSGNTQSDPFGFASNGNAAGGGGDGSFNFNFDGDGEGGATSGAGGNSTSFFNF
What is called stoichiometry N is the number of molecules, sites or subunits per partner or assembly. For the molecule B1, in data set [2], the “stoichiometry N” value is 4 copies of each protein in the complex.

B2: 6×His-SKR-1^WT (natural protein)
chain: MADQKKVSEAAKEREIKISSSDNEIFLVPRNVIRLSNTINTLLMDLGLDDEEGTNAEPIPVQNVTASILKKVISWCNHHHSDPISTEDSDNREKRTDDIGSWDVEFLKVDQGTLFELILAANYLDIKGLLDVTCKTVANMIKGKSPEEIRRTFNIKNDFTPEEEEQIRKENAWCED
On to B2, for which the “stoichiometry N” value in data set [3] is 2.

B3: 6×His-SKR-1^I155A,W173A (natural protein)
chain: MADQKKVSEAAKEREIKISSSDNEIFLVPRNVIRLSNTINTLLMDLGLDDEEGTNAEPIPVQNVTASILKKVISWCNHHHSDPISTEDSDNREKRTDDIGSWDVEFLKVDQGTLFELILAANYLDIKGLLDVTCKTVANMIKGKSPEEIRRTFNAKNDFTPEEEEQIRKENAACED
With B3, the “stoichiometry N” value in data set [3] is 2.

B4: SKR-1 (recombinant, untagged) (natural protein)
chain: MADQKKVSEAAKEREIKISSSDNEIFLVPRNVIRLSNTINTLLMDLGLDDEEGTNAEPIPVQNVTASILKKVISWCNHHHSDPISTEDSDNREKRTDDIGSWDVEFLKVDQGTLFELILAANYLDIKGLLDVTCKTVANMIKGKSPEEIRRTFNIKNDFTPEEEEQIRKENAWCED
B4: the “stoichiometry N” value in data set [2] was 4 copies of each protein in the complex.

B5: SYP-2 (recombinant, untagged) (natural protein)
chain: MNSAHRSSLKKRPGPQDDRRVSFASPVSSSQKTAAVTVAAQTKQPAKAKNLRTMHSTPKKSKPAHDVADIISLVSKQSDILDDVSEIEHKMIKQAKMTQDLTMELANSIERIANMALAESKLSDQMEKQSKKLISLEGKTKELVEKANNWSKTLENRVDARSHHSTCLNDVQAAIKIINNAKINNDGFSEDFSAHYDKLLDLVETLEPWADKL
Turning to B5, in data set [2], the “stoichiometry N” value was 4 copies of each protein in the complex.

The values are drawn from PMC10866564 (Science Advances, 2024).
